Results as given in patent US20190025332A1 (Novo Nordisk, published 2019).

Assays:
hPSPN = molecular target: T1, hPSPN (human, UniProt O60542 61-156, limits assumed); assay: SPR; ligand as analyte over immobilised hGFRAL(ECR)-Fab-HPC4
T1 sequence (looked up): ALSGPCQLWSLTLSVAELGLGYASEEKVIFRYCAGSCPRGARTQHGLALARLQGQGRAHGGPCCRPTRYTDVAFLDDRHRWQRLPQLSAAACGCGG
Source text: (§1) For SPR-based binding assay, wtMIC-1 as well as hGDNF, hNRTN, hARTN and hPSPN, at various concentrations were run as flow-through analytes. hGFRAL(ECR)-Fab and mGFRAL(ECR)-Fab were immobilized as ligand. […] FCRL2-Fab-HPC4 (Ctrl.-Fab-HPC4) was used as control. Please see FIG. 5 and Table 4.

hNRTN = molecular target: T2, hNRTN (human, UniProt Q99748 96-197); assay: as above
T2 sequence (looked up): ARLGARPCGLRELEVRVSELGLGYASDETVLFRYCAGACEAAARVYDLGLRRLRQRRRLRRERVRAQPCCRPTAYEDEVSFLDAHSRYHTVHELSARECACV
Source text: as §1

hARTN = molecular target: T3, hARTN (human, UniProt Q5T4W7 108-220); assay: as above
T3 sequence (looked up): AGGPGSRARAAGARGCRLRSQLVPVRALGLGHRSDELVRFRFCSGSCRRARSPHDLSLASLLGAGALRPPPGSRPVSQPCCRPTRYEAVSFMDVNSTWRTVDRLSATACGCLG
Source text: as §1

hGDNF = molecular target: T4, hGDNF (human, UniProt P39905 78-211); assay: as above
T4 sequence (looked up): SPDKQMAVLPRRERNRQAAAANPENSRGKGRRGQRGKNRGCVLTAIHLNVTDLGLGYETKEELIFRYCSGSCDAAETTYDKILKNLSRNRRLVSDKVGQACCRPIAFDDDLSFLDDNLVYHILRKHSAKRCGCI
Source text: as §1

wild type human MIC-1 = molecular target: T5, wild type human MIC-1 (human, UniProt Q99988 197-308); assay: SPR; GFRAL fragment as analyte over immobilised wtMIC-1; relative to hGFRAL(ECR) set as 100%
T5 construct: also called wtMIC-1; hMIC-1
T5 sequence: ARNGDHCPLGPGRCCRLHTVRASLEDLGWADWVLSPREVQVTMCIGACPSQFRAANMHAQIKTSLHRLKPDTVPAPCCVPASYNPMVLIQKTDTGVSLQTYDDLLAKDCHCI
Method: MIC-1 interactions with soluble GFRAL fragments were assessed by SPR-based binding assay. A Biacore® 4000 (GE Healthcare, Piscataway, N.J., USA) instrument was used for SPR-based binding assay. The assays were performed at 25° C. at flow rates of 30 μL/minute in 1× HBS-P running buffer (BR-1006-71, GE Healthcare, Piscataway, N.J., USA). Purified GFRAL fragments at various concentrations were run as flow-through analyte and wtMIC-1 was immobilized as ligand. Please see FIG. 6 and Table 5.

binding result (hPSPN): no binding | binding result (hNRTN): no binding | binding result (hARTN): no binding | binding result (hGDNF): no binding | % of Binding (wild type human MIC-1): 100%
B1: hGFRAL(ECR)-Fab-HPC4 (receptor)
chain: QTNNCTYLREQCLRDANGCKHAWRVMEDACNDSDPGDPCKMRNSSYCNLSIQYLVESNFQFKECLCTDDFYCTVNKLLGKKCINKSDNVKEDKFKWNLTTRSHHGFKGMWSCLEVAEACVGDVVCNAQLASYLKACSANGNPCDLKQCQAAIRFFYQNIPFNIAQMLAFCDCAQSDIPCQQSKEALHSKTCAVNMVPPPTCLSVIRSCQNDELCRRHYRTFQSKCWQRVTRKCHEDENCISTLSKQDLTCSGSDDCKAAYIDILGTVLQVQCTCRTITQSEESLCKIFQHMLHRKSCFNYPTLSNVKGMALYTRKHANKITLTGFHSPFNGEGGGGSGGGGSDVVMTQTPLSLPVSLGDQASISCRSSQSLLHSNGNTYLHWYLQKPGQSPKLLIYKVSNRFSGVPDRFSGSGSGTDFTLKISRVEAEDLGVYFCSQSTHVPWTFGGGTKLEIKRADAAPTVSIFPPSSEQLTSGGASVVCFLNNFYPKDINVKWKIDGSERQNGVLNSWTDQDSKDSTYSMSSTLTLTKDEYERHNSYTCEATHKTSTSPIVKSFNRNEC
heavy: EVQIQESGPSLVKPSQTLSLTCSVSGDSITSGYWNWIRKFPGHKIEYMGTISYSGDTYYNPSLKSRISITRDTSKNQYYLHLNSVTTEDTATYYCARYGSYVFDYWGQGTTLTVSSAKTTPPSVYPLAPGSAAQTNSMVTLGCLVKGYFPEPVTVTWNSGSLSSGVHTFPAVLQSDLYTLSSSVTVPSSTWPSETVTCNVAHPASSTKVDKKIVPRDCGGGGSEDQVDPRLIDGK
